Measured values reported in patent US20200392228A1 (PANDION OPERATIONS, published 2020).

T1: human MAdCAM expressed on cells (human, UniProt Q13477 19-382)
T1 construct: whole, on cells; also called MADCAM1
T1 sequence (looked up): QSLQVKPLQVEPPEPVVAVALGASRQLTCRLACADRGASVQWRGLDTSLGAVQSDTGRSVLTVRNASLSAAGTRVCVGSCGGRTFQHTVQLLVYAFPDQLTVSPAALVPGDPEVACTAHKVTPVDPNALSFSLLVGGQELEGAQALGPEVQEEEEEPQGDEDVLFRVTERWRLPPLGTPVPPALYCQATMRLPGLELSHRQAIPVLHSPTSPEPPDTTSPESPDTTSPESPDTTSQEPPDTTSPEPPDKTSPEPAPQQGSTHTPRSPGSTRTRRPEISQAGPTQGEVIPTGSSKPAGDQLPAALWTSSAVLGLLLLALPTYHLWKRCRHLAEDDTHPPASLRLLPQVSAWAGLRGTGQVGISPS

T2: mouse MAdCAM expressed on cells (mouse, UniProt Q61826 22-405)
T2 construct: whole, on cells
T2 sequence (looked up): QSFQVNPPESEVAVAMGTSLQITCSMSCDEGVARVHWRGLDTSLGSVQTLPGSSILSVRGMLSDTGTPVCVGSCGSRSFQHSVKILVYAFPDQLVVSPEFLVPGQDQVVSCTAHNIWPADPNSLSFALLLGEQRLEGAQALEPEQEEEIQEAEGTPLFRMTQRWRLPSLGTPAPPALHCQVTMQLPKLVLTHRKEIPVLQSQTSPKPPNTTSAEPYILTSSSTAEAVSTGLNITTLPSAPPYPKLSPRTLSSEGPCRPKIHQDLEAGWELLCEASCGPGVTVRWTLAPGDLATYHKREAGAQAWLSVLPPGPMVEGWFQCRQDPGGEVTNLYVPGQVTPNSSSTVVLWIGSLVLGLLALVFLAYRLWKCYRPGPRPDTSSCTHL

T3: human MAdCAM protein (human, UniProt Q13477 19-317)
T3 construct: used for Octet, SPR, ELISA and plate capture; construct not described; also called recombinant human MAdCAM; soluble monomeric human MAdCAM
T3 sequence (looked up): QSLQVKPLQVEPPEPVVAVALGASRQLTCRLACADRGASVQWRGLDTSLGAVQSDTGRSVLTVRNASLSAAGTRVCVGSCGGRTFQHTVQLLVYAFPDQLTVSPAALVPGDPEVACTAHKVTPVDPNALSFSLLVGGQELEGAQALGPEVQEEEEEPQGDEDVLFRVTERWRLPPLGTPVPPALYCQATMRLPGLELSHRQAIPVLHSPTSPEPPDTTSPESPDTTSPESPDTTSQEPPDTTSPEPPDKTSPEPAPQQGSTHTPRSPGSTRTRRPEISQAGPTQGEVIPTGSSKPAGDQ

T4: mouse MAdCAM protein (mouse, UniProt Q61826 22-365, limits assumed)
T4 construct: also called recombinant mouse MAdCAM-1; mMAdCAM-1
T4 sequence (looked up): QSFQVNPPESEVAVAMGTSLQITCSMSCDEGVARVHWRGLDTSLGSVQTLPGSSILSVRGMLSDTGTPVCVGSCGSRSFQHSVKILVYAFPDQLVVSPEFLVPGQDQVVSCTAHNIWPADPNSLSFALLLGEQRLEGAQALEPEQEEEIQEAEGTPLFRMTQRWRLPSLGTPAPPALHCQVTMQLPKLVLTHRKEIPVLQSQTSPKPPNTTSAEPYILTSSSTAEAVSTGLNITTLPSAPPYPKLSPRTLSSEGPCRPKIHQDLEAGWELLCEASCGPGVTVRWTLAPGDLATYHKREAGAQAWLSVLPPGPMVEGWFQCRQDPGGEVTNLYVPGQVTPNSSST

T5: CD25 (Homo sapiens (Human), UniProt P01589 22-240)
T5 construct: also called IL-2R alpha chain
T5 sequence: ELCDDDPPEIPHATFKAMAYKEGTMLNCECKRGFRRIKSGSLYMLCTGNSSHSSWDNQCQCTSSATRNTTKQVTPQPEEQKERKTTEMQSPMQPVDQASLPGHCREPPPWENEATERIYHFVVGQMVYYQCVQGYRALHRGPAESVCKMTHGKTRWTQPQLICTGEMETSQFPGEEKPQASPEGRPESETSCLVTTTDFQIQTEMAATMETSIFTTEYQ


Tests used:
[1] = target: T1, human MAdCAM expressed on cells; test: cell binding
[2] = target: T2, mouse MAdCAM expressed on cells; test: cell binding
[3] = target: T3, human MAdCAM protein; test: Octet
[4] = target: T4, mouse MAdCAM protein; test: Octet
[5] = target: T5, CD25; test: ELISA, plate-bound CD25
Experimental: An immunosorbent plate was coated with CD25 at a concentration of 0.5 μg/mL in PBS pH 7.4, 75 ul/well, and incubated overnight at 4° C. Wells were washed with PBS pH 7.4 containing 0.05% Tween-20 (wash buffer) three times, and then blocked with 200 ul/well 1% BSA in PBS pH 7.4 (block buffer) for two hours at room temperature. After three washes with wash buffer IL-2M molecules of Example 12 were diluted to eleven—two fold serial dilution in PBS containing 1% BSA and 0.05% Tween-20 (assay buffer) with 2 nM being the highest concentration. The diluted material was added to the CD25 coated plate at 75 ul/well for 1 hour at room temperature. After three washes with wash buffer, a goat biotinylated anti-IL-2 polyclonal antibody, diluted to 0.05 μg/mL in assay buffer, was added to the plate at 75 ul/well for 1 hr at room temperature. After three washes with wash buffer high sensitivity streptavidin HRP diluted in assay buffer at 1:5000 was added to the plate at 75 ul/well for 15 minutes at room temperature. After three washes with wash buffer and 1 wash with wash buffer (with no tween-20), the assay was developed with TMB, and stopped with 1N HCL. OD 450 nm was measured. The experiment included appropriate controls for non-specific binding of IL-2M molecules to the plate/block in the absence of CD25 and a negative control molecule that is unable to bind CD25.

Binder | binding result [1] | binding result [2] | binding result [3] | binding result [4] | EC50 [5] [nM]
MAdCAM antibody Clone ID 9 of Table 6 (scFv) (scFv) scFv: EVQLLESGGGLVQPGGSLRLSCAASGFTFSDYYMNWVRQAPGKGLEWVSVIGESGGSTYYADSVKGRFTISRDNSKNTLYLQMNSLRAEDTAVYYCAADPVSRWPKHGGGDYWGQGTLVTVSSGGGGSGGGGSGGGGSGGGGSDIQMTQSPSSLSASVGDRVTITCRASQGISSSLAWYQQKPGKAPKLLIYAASTLQSGVPSRFSGSGSGTDFTLTISSLQPEDFATYYCQQSYSTPWTFGQGTKVEIK | binds | binds | binds | binds | –
MAdCAM antibody Clone ID 6 of Table 6 (scFv) (scFv, also called Antibody Clone 6) scFv: EVQLLESGGGLVQPGGSLRLSCAASGFTFNNYAFHWVRQAPGKGLEWVSRINSYGTSTTYADSVKGRFTISRDNSKNTLYLQMNSLRAEDTAVYYCAREGPVAGYWYFDLWGQGTLVTVSSGGGGSGGGGSGGGGSGGGGSDIQMTQSPSSLSASVGDRVTITCRASQIIGTNLAWYQQKPGKAPKLLIYGASSLQSGVPSRFSGSGSGTDFTLTISSLQPEDFATYYCQQSYRLPFTFGQGTKVEIK | binds | no binding | binds | no binding | –
human IL-2M fused N-terminally to human IgG1 Fc domain (SEQ ID NO: 57) (Fc fusion, also called IL-2 N88D V69A, Q74P-G4Sx4-Fc) APTSSSTKKTQLQLEHLLLDLQMILNGINNYKNPKLTRMLTFKFYMPKKATELKHLQCLEEELKPLEEALNLAPSKNFHLRPRDLISDINVIVLELKGSETTFMCEYADETATIVEFLNRWITFSQSIISTLTGGGGSGGGGSGGGGSGGGGSDKTHTCPPCPAPEAAGAPSVFLFPPKPKDTLMISRTPEVTCVVVDVSHEDPEVKFNWYVDGVEVHNAKTKPREEQYNSTYRVVSVLTVLHQDWLNGKEYKCKVSNKALPAPIEKTISKAKGQPREPQVYTLPPSREEMTKNQVSLTCLVKGFYPSDIAVEWESNGQPENNYKTTPPVLDSDGSFFLYSKLTVDKSRWQQGNVFSCSVMHEALHNHYTQKSLSLSPG | – | – | – | – | < 1
IL-2M SEQ ID NO: 53 (Fc fusion, also called IL-2 L53I N88D V69A, Q74P, C125S-G4Sx4-Fc) APTSSSTKKTQLQLEHLLLDLQMILNGINNYKNPKLTRMLTFKFYMPKKATEIKHLQCLEEELKPLEEALNLAPSKNFHLRPRDLISDINVIVLELKGSETTFMCEYADETATIVEFLNRWITFSQSIISTLTGGGGSGGGGSGGGGSGGGGSDKTHTCPPCPAPEAAGAPSVFLFPPKPKDTLMISRTPEVTCVVVDVSHEDPEVKFNWYVDGVEVHNAKTKPREEQYNSTYRVVSVLTVLHQDWLNGKEYKCKVSNKALPAPIEKTISKAKGQPREPQVYTLPPSREEMTKNQVSLTCLVKGFYPSDIAVEWESNGQPENNYKTTPPVLDSDGSFFLYSKLTVDKSRWQQGNVFSCSVMHEALHNHYTQKSLSLSPG | – | – | – | – | < 1
MAdCAM antibody Clone ID 20 of Table 6 (scFv) (scFv) scFv: EVQLLESGGGLVQPGGSLRLSCAASGFTFDDYAMHWVRQAPGKGLEWVSYIDTSSSHLYYADSVKGRFTISRDNSKNTLYLQMNSLRAEDTAVYYCARDEAAAGYYGMDVWGQGTTVTVSSGGGGSGGGGSGGGGSGGGGSDIQMTQSPSSLSASVGDRVTITCQAGQDISNYLNWYQQKPGKAPKLLIYDASNLETGVPSRFSGSGSGTDFTLTISSLQPEDFATYYCQQTYSTPITFGQGTKLEIK | binds | no binding | binds | no binding | –
MAdCAM antibody Clone ID 19 of Table 6 (scFv) (scFv) scFv: EVQLLESGGGLVQPGGSLRLSCAASGFTFDDYAMHWVRQAPGKGLEWVSGISWNSGSIGYADSVKGRFTISRDNSKNTLYLQMNSLRAEDTAVYYCAKDIVAAGHYYYGMDVWGQGTTVTVSSGGGGSGGGGSGGGGSGGGGSDIQMTQSPSSLSASVGDRVTITCQASQDISNYLNWYQQKPGKAPKLLIYDASNLETGVPSRFSGSGSGTDFTLTISSLQPEDFATYYCQQSYSTPLTFGGGTKVEIK | binds | no binding | binds | no binding | –

The remaining lines, values ahead:

binding result [1] | binding result [2] | binding result [3] | binding result [4] | EC50 [5] [nM] | Binder
– | – | – | – | < 1 | IL-2M SEQ ID NO: 54 (Fc fusion, also called IL-2 L56I N88D V69A, Q74P, C125S-G4Sx4-Fc) APTSSSTKKTQLQLEHLLLDLQMILNGINNYKNPKLTRMLTFKFYMPKKATELKHIQCLEEELKPLEEALNLAPSKNFHLRPRDLISDINVIVLELKGSETTFMCEYADETATIVEFLNRWITFSQSIISTLTGGGGSGGGGSGGGGSGGGGSDKTHTCPPCPAPEAAGAPSVFLFPPKPKDTLMISRTPEVTCVVVDVSHEDPEVKFNWYVDGVEVHNAKTKPREEQYNSTYRVVSVLTVLHQDWLNGKEYKCKVSNKALPAPIEKTISKAKGQPREPQVYTLPPSREEMTKNQVSLTCLVKGFYPSDIAVEWESNGQPENNYKTTPPVLDSDGSFFLYSKLTVDKSRWQQGNVFSCSVMHEALHNHYTQKSLSLSPG
binds | binds | binds | binds | – | MAdCAM antibody Clone ID 5 of Table 6 (scFv) (scFv) scFv: EVQLLESGGGLVQPGGSLRLSCAASGFTFSSYWMHWVRQAPGKGLEWVSSISPGGSNIDYADSVKGRFTISRDNSKNTLYLQMNSLRAEDTAVYYCAREVQLSHYDYWGQGTLVTVSSGGGGSGGGGSGGGGSGGGGSDIQMTQSPSSLSASVGDRVTITCRASQGISNSLAWYQQKPGKAPKLLIYGASSLQSGVPSRFSGSGSGTDFTLTISSLQPEDFATYYCQQANSFPFTFGQGTKVEIK
binds | binds | binds | binds | – | MAdCAM antibody Clone ID 7 of Table 6 (scFv) (scFv) scFv: QVQLVQSGAEVKKPGASVKVSCKASGYTFTGYHIHWVRQAPGQGLEWMGIINPSGGSTIYAQKFQGRVTMTRDTSTSTVYMELSSLRSEDTAVYYCAKDWSSWYLGPFDYWGQGTLVTVSSGGGGSGGGGSGGGGSGGGGSDIQMTQSPSSLSASVGDRVTITCRASQNISSSLNWYQQKPGKAPKLLIYAASSLQSGVPSRFSGSGSGTDFTLTISSLQPEDFATYYCQQSYTTPYTFGQGTKVEIK
binds | no binding | binds | no binding | – | MAdCAM antibody Clone ID 23 of Table 6 (scFv) (scFv) scFv: EVQLLESGGGLVQPGGSLRLSCAASGFTFSSYAMHWVRQAPGKGLEWVSGISGSGGSAYYADSVKGRFTISRDNSKNTLYLQMNSLRAEDTAVYYCATSQAPVDYYYYGMDVWGQGTTVTVSSGGGGSGGGGSGGGGSGGGGSDIQMTQSPSSLSASVGDRVTITCRASQSISSWLAWYQQKPGKAPKLLIYAASNLQRGVPSRFSGSGSGTDFTLTISSLQPEDFATYYCQQSYSIPITFGQGTKVEIK
